This note sets out measurements from patent US20040228836A1.

For the test, the target named is intranuclear antigens consisting of histone DNA complexes (in fixed Raji cells). Description: 125I-labeled MAb incubated with fixed Raji cells; Scatchard analysis of bound radioactivity.

For the substance “chimeric TNT-1 monoclonal antibody (chTNT-1)”, the Ka worked out at 2.5e+09 M⁻¹.
